Assay results: US20220380801A1 (AstraZeneca / MedImmune, published 2022)
Changes are numbered by the printed parent chain.

T1: HCV NS3/4A PR K136D (S139A background), in the presence of simeprevir (Hepatitis C virus subtype 1a)
T1 chain: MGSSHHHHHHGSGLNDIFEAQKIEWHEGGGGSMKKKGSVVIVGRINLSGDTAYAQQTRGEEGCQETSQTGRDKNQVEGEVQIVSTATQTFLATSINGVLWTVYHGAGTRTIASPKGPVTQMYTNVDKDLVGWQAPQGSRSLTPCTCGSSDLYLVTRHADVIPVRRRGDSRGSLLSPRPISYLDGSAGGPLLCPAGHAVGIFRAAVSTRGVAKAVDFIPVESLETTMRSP

T2: HCV NS3/4A PR D168E (S139A background), in the presence of simeprevir (Hepatitis C virus subtype 1a)
T2 chain: T1 chain with D183K, D215E

T3: HCV NS3/4A PR K136N (S139A background), in the presence of simeprevir (Hepatitis C virus subtype 1a)
T3 chain: T1 chain with D183N

B1: PRSIM_75 (scFv)
scFv: EVQLVQSGAEVKKPGSSVKVSCKASGGSFNSYTLDWVRQAPGQGLEWMGGIIPVFGSPNYGQKFQGRVTITADESTSTAYMELSSLKSDDTAVYYCARGLVYQPLDSWGRGTLVTVSSGGGGSGGGGSGGGGSAQAVLTQPSSASGTPGQRVTISCSGSSSNIGSYTVNWYQQFPGTAPKLLIYSNTQRPSGVPDRFSGSKSGTSASLAISGLQSEDEADYYCAAWDDSLNGWVFGGGTKVTVL
B2: PRSIM_72 (scFv)
scFv: QVQLVQSGAEVKKPGSSVKVSCKVSGGSFNNYGVSWVRQAPGQGLEWMGRIIPIRDTANYAQKFQGRVTITADTSTNIAYMELSGLRSDDTAVYYCARVLEDDFWGGYYDFYFYVMDVWGQGTLVTVSSGGGGSGGGGSGGGGSALSSELTQDPVVSVPLGQTARITCQGDSLTTYYATWYQQKPGQAPVLVLYNEHKRPSGISDRFSGSSAGDAASLTITDTQAEDEADYYCSSRDTGGKHVLFGGGTKLTVL
B3: PRSIM_32 (designed binder)
chain: RLDAPSQIEVKDVTDTTALITWWSPRYYYASISGFELTYGIKDVPGDRTTIKLDYASNDYSIGNLKPDTEYEVSLISWNYGDWRYSSSNPAKITFKTGL
B4: PRSIM_67 (scFv)
scFv: EVQLVQSGAEVKKPGAAVRISCKTSGYVFTSYYVHWVRQAPGQGLEWMGVINPSGGNTNYAQKFQDRVTMTRDTSTTTVYMELSSLMFDDTAVYYCAKRDYGGPLANWGRGTLVTVSSGGGGSGGGGSGGGGSALSYELTQPPSVSEAPRQRVTISCSGSSSNIGNNAVNWYQQLPGKAPKLLIFYDDLLPSGVSDRFSGSKSGTSASLAISGLQSEDEADYYCAAWDDSLNGLVFGTGTKLTVL
B5: PRSIM_36 (designed binder)
chain: RLDAPSQIEVKDVTDTTALITWSWPRDDDYDIWYFELTYGIKDVPGDRTTIKLLNYASPYSIGNLKPDTEYEVSLISVVPDTYGRGTSNPAKITFKTGL
B6: PRSIM_04 (scFv)
scFv: QVQLVQSGAEVKKPGSSVKVSCKASGGTFSSYAISWVRQAPGQGLEWMGGIIPIFGTANYAQKFQGRVTITADESTSTAYMELSSLRSEDTAVYYCARGMAHFYQFDLWGQGTLVTVSSGGGGSGGGGSGGGGSAQSVLTQPPSASGTPGQRVTISCSGSSSNIGSNTVNWYQQLPGTAPKLLIYSNNQRPSGVPDRFSGSKSGTSASLAISGLQSEDEADYYCAAGDHDHEHVVFGGGTKLTVL
notes: also called PRSIM_4
B7: PRSIM_57 (scFv)
scFv: QVQLVQSGAEVKKPGSSVKVSCKASGGTFSSYAISWVRQAPGQGLEWMGGIIPIFGTANYAQKFQGRVTITADESTSTAYMELSSLRSEDTAVYYCARHTNYITVFDYWGQGTLVTVSSGGGGSGGGGSGGGGSAQSVLTQPPSASGTPGQRVTISCSGSSSNIGSNTVNWYQQLPGTAPKLLIYSNNQRPSGVPDRFSGSKSGTSASLAISGLQSEDEADYYCAAWDHHWEQVVFGGGTKLTVL
B8: PRSIM_47 (designed binder)
chain: RLDAPSQIEVKDVTDTTALITWSRPGVSIWYFELTYGIKDVPGDRTTIKLDYRSYYYSIGNLKPDTEYEVSLISGSYGLVGVRASNPAKITFKTGL
B9: PRSIM_33 (designed binder)
chain: RLDAPSQIEVKDVTDTTALITWYPPGRWYDDIWYFELTYGIKDVPGDRTTIKLARGDDVYSIGNLKPDTEYEVSLISWGPDRGDRAGSNPAKITFKTGL
B10: PRSIM_23 (designed binder)
chain: RLDAPSQIEVKDVTDTTALITWVDPRYDDIWWFELTYGIKDVPGDRTTIKLYLNDPYYSIGNLKPDTEYEVSLISYTGDSYSRSGSNPAKITFKTGL

Experiments:
[1] = biological target: T4, BSA, in the presence of simeprevir (UniProt P02769 25-607); assay: SPR Biacore 8K, PRSIM immobilised, BSA + 10 nM simeprevir
T4 construct: also called BSA control
T4 sequence (P02769 25-607 limits assumed): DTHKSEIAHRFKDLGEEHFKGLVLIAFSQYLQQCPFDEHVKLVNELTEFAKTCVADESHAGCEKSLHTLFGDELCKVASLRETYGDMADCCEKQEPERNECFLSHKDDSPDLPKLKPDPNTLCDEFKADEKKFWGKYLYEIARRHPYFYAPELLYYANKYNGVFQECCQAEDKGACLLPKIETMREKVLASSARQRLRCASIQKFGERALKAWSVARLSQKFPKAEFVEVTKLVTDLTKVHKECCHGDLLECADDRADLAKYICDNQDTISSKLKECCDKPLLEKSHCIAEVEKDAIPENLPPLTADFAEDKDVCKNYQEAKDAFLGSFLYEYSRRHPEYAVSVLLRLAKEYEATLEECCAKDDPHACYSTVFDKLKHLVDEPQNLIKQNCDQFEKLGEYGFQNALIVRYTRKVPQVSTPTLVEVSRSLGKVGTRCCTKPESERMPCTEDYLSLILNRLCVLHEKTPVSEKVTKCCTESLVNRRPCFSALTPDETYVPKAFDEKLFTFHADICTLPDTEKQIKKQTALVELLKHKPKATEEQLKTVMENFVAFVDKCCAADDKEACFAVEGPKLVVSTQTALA

[2] = biological target: T5, HCV NS3/4A PR (S139A):simeprevir complex (Hepatitis C virus subtype 1a); assay: HTRF, with simeprevir
[3] = biological target: T5, HCV NS3/4A PR (S139A):simeprevir complex; assay: phage ELISA
[4] = biological target: T5, HCV NS3/4A PR (S139A):simeprevir complex; assay: SPR Biacore 8K, PRSIM immobilised, protease flowed with 10 nM simeprevir
[5] = biological target: T1, HCV NS3/4A PR K136D (S139A background), …; assay: SPR Biacore 8K, simeprevir titrated
[6] = biological target: T1, HCV NS3/4A PR K136D (S139A background), …; assay: SPR Biacore 8K, with simeprevir
[7] = biological target: T2, HCV NS3/4A PR D168E (S139A background), …; assay: SPR Biacore 8K, with simeprevir
[8] = biological target: T3, HCV NS3/4A PR K136N (S139A background), …; assay: SPR Biacore 8K, with simeprevir
[9] = biological target: T1, HCV NS3/4A PR K136D (S139A background), …
[10] = biological target: T2, HCV NS3/4A PR D168E (S139A background), …
[11] = biological target: T3, HCV NS3/4A PR K136N (S139A background), …
[12] = biological target: T1, HCV NS3/4A PR K136D (S139A background), …
[13] = biological target: T2, HCV NS3/4A PR D168E (S139A background), …
[14] = biological target: T3, HCV NS3/4A PR K136N (S139A background), …

Binder	binding result [1]	HTRF max. signal (% delta F) [2] [% delta F]	Binding fold change [(HCV protease + Simeprevir binding)/HCV protease alone] [3] [fold]	Kd [4] [nM]	further results
B1	no binding (tested: 20 nM)	–	–	–	–
B2	no binding (tested: 20 nM)	–	–	–	–
B3	no binding (tested: 20 nM)	1960	22.4	16	–
B4	no binding (tested: 20 nM)	–	–	–	–
B5	no binding (tested: 20 nM)	1440	27.9	9.7	koff [4]: 0.0498 s⁻¹; kon [4]: 5.15e+06 M⁻¹ s⁻¹
B6	no binding (tested: 20 nM)	–	–	–	–
B7	no binding (tested: 20 nM)	–	–	–	–
B8	no binding (tested: 20 nM)	1370	25.3	3.9	–
B9	no binding (tested: 20 nM)	1700	29.9	8.3	koff [4]: 0.0303 s⁻¹; kon [4]: 3.65e+06 M⁻¹ s⁻¹
B10	–	–	–	–	fold increase of the simeprevir EC50 against the wt complex [5]: ~30 fold; fold decrease of affinity against 'Wt' [6]: 6 to 7 fold; fold decrease of affinity against 'wt' protease [7]: ~3 fold; fold decrease of affinity against 'Wt' [8]: 6 to 7 fold; Kd [9]: 33 nM; Kd [10]: 14.7 nM; Kd [11]: 39.5 nM; kon [11]: 5.31e+08 M⁻¹ s⁻¹; Simeprevir EC50 for induction of heterodimerisation [12]: 132 nM; Simeprevir EC50 for induction of heterodimerisation [13]: 3.69 nM; Simeprevir EC50 for induction of heterodimerisation [14]: 8.06 nM
